Experimental data as given in patent US20240382605A1 (IONIS PHARMACEUTICALS, published 2024).
Starred links: 1 amine or outer side, 2 acyl side, 3 side chain; linkers in the order of their positions; H or OH if unused. Positions of bridges follow the written chain, without caps; N, C: chain ends. Non-standard residues stand in square brackets, D forms with d. No end group written: not given here. TATB = O=C(C[*:1])N1CN(C(=O)C[*:2])CN(C(=O)C[*:3])C1; Lys(N3) = [N-]=[N+]=NCCCC[C@H](N)C(=O)O

B1: 1590463-BCY17905 (peptide)
peptide: Ac-CSPD[Lys(N3)]HLGCISYC-NH2
modifications: linker 1-9-13 via TATB; not fully specified (residue 5); printed as CSPD[K(N3)]HLGCISYC; also: azide of K(N3) in loop clicked via BCN linker to oligonucleotide 1590463
notes: also called Compound No. 1590463 conjugated to BCY17905
B2: 1590463-BCY17896 (peptide)
peptide: CPXDAYLGCXSYCX
modifications: not fully specified; as printed CP[HyP]DAYLGC[tBuGly]SYC[K(N3)]: N-terminal acetyl; C-terminal amide; three Cys bound to TATB scaffold; [HyP] 4-trans-hydroxy-L-proline at 3; [tBuGly] t-butyl glycine at 10; [K(N3)] 6-azido lysine at 14 joined via BCN linker to oligonucleotide 1590463
notes: also called Compound No. 1590463 conjugated to BCY17896
B3: 1590463-BCY17903 (peptide)
peptide: Ac-C[Lys(N3)]PDAHLGCISYC-NH2
modifications: linker 1-9-13 via TATB; not fully specified (residue 2); printed as C[K(N3)]PDAHLGCISYC; also: azide of K(N3) in loop clicked via BCN linker to oligonucleotide 1590463
notes: also called Compound No. 1590463 conjugated to BCY17903
B4: 1590463-BCY17890 (peptide)
peptide: CSPDAHLGCISYCEXWX
modifications: not fully specified; as printed CSPDAHLGCISYCE[dP]W[K(N3)]: N-terminal acetyl; C-terminal amide; three Cys bound to TATB scaffold; [dP] D-proline at 15; [K(N3)] 6-azido lysine at 17 joined via BCN linker to oligonucleotide 1590463
notes: also called Compound No. 1590463 conjugated to BCY17890
B5: 1590463-BCY17882 (peptide)
peptide: NXNCSPDAHLGCISYCX
modifications: not fully specified; as printed N[dY]NCSPDAHLGCISYC[K(N3)]: N-terminal acetyl; C-terminal amide; three Cys bound to TATB scaffold; [dY] D-tyrosine at 2; [K(N3)] 6-azido lysine at 17 joined via BCN linker to oligonucleotide 1590463
notes: also called Compound No. 1590463 conjugated to BCY17882
B6: 1602000-BCY17873 (peptide)
peptide: CSPDAHLGCISYCEPWX
modifications: as printed CSPDAHLGCISYCEPW[K(N3)]: N-terminal acetyl; C-terminal amide; three Cys bound to TATB scaffold; [K(N3)] 6-azido lysine at 17 joined to oligonucleotide 1602000 ([PEG1alkyne] linker)
notes: also called Compound No. 1602000 conjugated to BCY17873
B7: 1614439-BCY17906 (peptide)
peptide: CSPDAHLGCISYCX
modifications: not fully specified; as printed CSPDAHLGCISYC[K(N3)(PYA-Maleimide)]: N-terminal acetyl; C-terminal amide; three Cys bound to TATB scaffold; modified lysine [K(N3)(PYA-Maleimide)] at 14 joined to oligonucleotide 1614439 (5' 6-mercaptohexanol linker)
notes: the coupling chemistry of this pair is not spelled out; also called Compound No. 1614439 conjugated to BCY17906
B8: 1609732-BCY17873 (peptide)
peptide: CSPDAHLGCISYCEPWX
modifications: not fully specified; as printed CSPDAHLGCISYCEPW[K(N3)]: N-terminal acetyl; C-terminal amide; three Cys bound to TATB scaffold; [K(N3)] 6-azido lysine at 17 joined via BCN linker to oligonucleotide 1609732
notes: also called Compound No. 1609732 conjugated to BCY17873
B9: 1590463-BCY19406 (peptide)
peptide: Ac-CSPDAHLGCISYCEPW
modifications: linker 1-9-13 via TATB; not fully specified (C-terminus); printed as CSPDAHLGCISYCEPW[PEG24][K(N3)]; also: azide of C-terminal K(N3) clicked via BCN linker to oligonucleotide 1590463
notes: also called Compound No. 1590463 conjugated to BCY19406
B10: 1590463-BCY19407 (peptide)
peptide: CSPDAHLGCISYCEPWGGSGGSX
modifications: not fully specified; as printed CSPDAHLGCISYCEPWGGSGGS[K(N3)]: N-terminal acetyl; C-terminal amidated; three Cys bound to molecular scaffold; [K(N3)] 6-azido lysine at 23 joined via BCN linker to oligonucleotide 1590463
notes: also called Compound No. 1590463 conjugated to BCY19407
B11: 1590463-BCY19405 (peptide)
peptide: Ac-CSPDAHLGCISYCEPW
modifications: linker 1-9-13 via TATB; not fully specified (C-terminus); printed as CSPDAHLGCISYCEPW[PEG10][K(N3)]; also: azide of C-terminal K(N3) clicked via BCN linker to oligonucleotide 1590463
notes: also called Compound No. 1590463 conjugated to BCY19405
B12: 1598988-BCY17901 (peptide)
peptide: CPXDAYLGCXSYCEPWX
modifications: as printed CP[HyP]DAYLGC[tBuGly]SYCEPW[K(N3)]: N-terminal acetyl; C-terminal amide; three Cys bound to TATB scaffold; [HyP] 4-trans-hydroxy-L-proline at 3; [tBuGly] t-butyl glycine at 10; [K(N3)] 6-azido lysine at 17 joined via BCN linker to oligonucleotide 1598988
B13: 1591118-BCY17901 (peptide)
peptide: CPXDAYLGCXSYCEPWX
modifications: as printed CP[HyP]DAYLGC[tBuGly]SYCEPW[K(N3)]: N-terminal acetyl; C-terminal amide; three Cys bound to TATB scaffold; [HyP] 4-trans-hydroxy-L-proline at 3; [tBuGly] t-butyl glycine at 10; [K(N3)] 6-azido lysine at 17 joined via BCN linker to oligonucleotide 1591118
notes: also called Compound No. 1591118 conjugated to BCY17901
B14: 1598988-BCY17896 (peptide)
peptide: CPXDAYLGCXSYCX
modifications: as printed CP[HyP]DAYLGC[tBuGly]SYC[K(N3)]: N-terminal acetyl; C-terminal amide; three Cys bound to TATB scaffold; [HyP] 4-trans-hydroxy-L-proline at 3; [tBuGly] t-butyl glycine at 10; [K(N3)] 6-azido lysine at 14 joined via BCN linker to oligonucleotide 1598988
B15: 1591118-BCY17896 (peptide)
peptide: CPXDAYLGCXSYCX
modifications: as printed CP[HyP]DAYLGC[tBuGly]SYC[K(N3)]: N-terminal acetyl; C-terminal amide; three Cys bound to TATB scaffold; [HyP] 4-trans-hydroxy-L-proline at 3; [tBuGly] t-butyl glycine at 10; [K(N3)] 6-azido lysine at 14 joined via BCN linker to oligonucleotide 1591118
notes: also called Compound No. 1591118 conjugated to BCY17896
B16: 486178:1614438-BCY17873 (peptide)
peptide: CSPDAHLGCISYCEPWX
modifications: not fully specified; as printed CSPDAHLGCISYCEPW[K(N3)]: N-terminal acetyl; C-terminal amide; three Cys bound to TATB scaffold; [K(N3)] 6-azido lysine at 17 joined via BCN linker to oligonucleotide 1614438 of the duplex 486178:1614438
notes: nucleic acids; also called Compound No. 486178:1614438 conjugated to BCY17873
B17: 1453015:1550983-BCY17873 (peptide)
peptide: CSPDAHLGCISYCEPWX
modifications: not fully specified; as printed CSPDAHLGCISYCEPW[K(N3)]: N-terminal acetyl; C-terminal amide; three Cys bound to TATB scaffold; [K(N3)] 6-azido lysine at 17 joined via BCN linker to sense strand 1550983 of the RNAi duplex 1453015:1550983
notes: nucleic acids; also called RNAi compound 1453015:1550983 conjugated to BCY17873

Target: T1, hCD71-Nluc fusion protein (human, UniProt P02786 1-760)
T1 construct: whole, on cells; Used as crude membrane fractions of HEK293 cells stably expressing hCD71-Nluc; also called human transferrin receptor, CD71, fused to NanoLuc; not shown: NanoLuc (ProMega) luciferase joined through its N-terminal Val
Test: nanoBRET competition, tracer BCY17871-1598988 60 nM, HEK293 hCD71-Nluc membranes

T1 sequence (P02786 other isoform, or with tags, fused parts or gaps): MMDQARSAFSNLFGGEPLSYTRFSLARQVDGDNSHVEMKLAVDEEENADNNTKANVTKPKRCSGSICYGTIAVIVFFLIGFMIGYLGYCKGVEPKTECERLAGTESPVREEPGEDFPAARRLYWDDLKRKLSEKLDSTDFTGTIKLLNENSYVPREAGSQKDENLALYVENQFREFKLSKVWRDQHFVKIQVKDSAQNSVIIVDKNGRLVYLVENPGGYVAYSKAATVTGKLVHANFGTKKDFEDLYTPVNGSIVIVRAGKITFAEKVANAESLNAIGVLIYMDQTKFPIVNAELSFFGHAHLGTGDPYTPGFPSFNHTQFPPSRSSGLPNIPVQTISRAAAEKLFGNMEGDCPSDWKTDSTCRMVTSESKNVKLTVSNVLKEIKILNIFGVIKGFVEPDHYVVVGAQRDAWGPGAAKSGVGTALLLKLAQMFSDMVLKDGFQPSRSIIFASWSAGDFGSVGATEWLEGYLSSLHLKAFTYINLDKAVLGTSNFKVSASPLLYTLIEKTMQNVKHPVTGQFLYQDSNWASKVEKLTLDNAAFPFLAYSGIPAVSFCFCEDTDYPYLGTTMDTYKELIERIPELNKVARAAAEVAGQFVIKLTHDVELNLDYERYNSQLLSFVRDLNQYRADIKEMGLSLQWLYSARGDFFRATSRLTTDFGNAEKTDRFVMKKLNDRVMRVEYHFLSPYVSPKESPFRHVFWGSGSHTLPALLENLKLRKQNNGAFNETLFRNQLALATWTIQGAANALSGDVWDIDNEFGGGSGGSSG

Binder | Ki
B1 | 148 nM
B2 | 2 nM
B3 | 125 nM
B4 | 17 nM
B5 | 23 nM

Target: T1, hCD71-Nluc fusion protein
Test: as above
Remark: another data set of the same source
Description: (§1) The mixtures were incubated for 3 hours at room temperature to reach equilibrium. To initiate BRET, 12.4 μL of 100 μM of the Nluc substrate furimazine was added to each well, and the mixtures were incubated for 5-30 minutes. The assay plate was read on a Promega GlowMax Discover plate reader at wavelengths of 450 nm and 600 nm, and the ratio of emissions at wavelengths 450/600 were used to yield % BRET efficiency. Data was subjected to non-linear regression, then fitted to a single site binding hyperbolic function.
(§2) In order to evaluate modified oligonucleotides conjugated to CD71 bicycle ligands and RNAi compounds conjugated to CD71 bicycle ligands, the assay was modified as follows. […] Modified oligonucleotides were conjugated to the bicycle ligands through a SPAAC reaction These were then added at a range of concentrations in triplicate assays points, and the mixtures were incubated for 3 hours at room temperature. BRET was initiated with the addition of furimazine and the assay was completed as described above.

Binder | Ki
B6 | 1 nM
B7 | 2 nM
B8 | 1 nM
B1 | 16 nM
B2 | 1 nM
B3 | 24 nM
B4 | 2 nM
B5 | 3 nM

Target: T1, hCD71-Nluc fusion protein
Test: as above
Remark: another data set of the same source
Description: as §1, §2

Binder | Ki
B6 | 36 nM
B7 | 23 nM
B8 | 10 nM
B2 | 2 nM
B4 | 20 nM
B5 | 55 nM

Target: T1, hCD71-Nluc fusion protein
Test: as above
Remark: another data set of the same source
Description: as §1, §2

Binder | Ki
B9 | 2 nM
B10 | 2 nM
B11 | 3 nM

Target: T1, hCD71-Nluc fusion protein
Test: as above
Remark: another data set of the same source
Description: as §1, §2

Binder | Ki
B12 | 4.4 nM
B13 | 1.4 nM
B14 | 9.9 nM
B15 | 3.1 nM

Target: T1, hCD71-Nluc fusion protein
Test: as above
Remark: another data set of the same source

Binder | Ki
B16 | 95 nM

Target: T1, hCD71-Nluc fusion protein
Test: as above
Remark: another data set of the same source

Binder | Ki
B17 | 9 nM

Target: T1, hCD71-Nluc fusion protein
Test: as above
Remark: another data set of the same source

Binder | Ki
B17 | 38 nM
